Here are results for 1 molecule from paper doi:10.1101/2023.01.23.525163.

The target of this test is His-caltubin-Tat (cell-penetrating caltubin) (Lymnaea stagnalis | HIV). Description: ITC.

One may read the Kd as the free concentration of one partner at which half of the binding sites on the other are occupied at equilibrium, for simple one-to-one binding. Low readings indicate higher affinity, high ones lower affinity. As for Ac-LDHKFDLMYAKRAFV-NH2 [L391 peptide (synthetic, TUBA1 L391-V405)], the dissociation constant Kd worked out at 3.42 µM.
